Source: paper PMC2649783

Molecular target: HUαβ (Escherichia coli (overexpressed in …, UniProt P0ACF0;P0ACF4 1-90;1-90))
Experiment: ITC

Chain of HUαβ (Escherichia coli (P0ACF0 whole entry, chain 1 of 2): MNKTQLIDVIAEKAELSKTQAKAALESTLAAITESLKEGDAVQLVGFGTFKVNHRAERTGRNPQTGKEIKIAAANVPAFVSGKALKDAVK
Chain of HUαβ (Escherichia coli (P0ACF4 whole entry, chain 2 of 2): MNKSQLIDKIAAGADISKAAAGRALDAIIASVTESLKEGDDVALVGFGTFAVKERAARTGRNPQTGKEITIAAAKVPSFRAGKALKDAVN

B1: 38 bp DNA (dsDNA)
DNA 1: CGGTCAGTTCAAGCCCTTCTAAGTTTGTAGACACCAGC
DNA 2: GCTGGTGTCTACAAACTTAGAAGGGCTTGAACTGACCG
B1: binds.
